What was measured:
[1] = biological target: T1, DYRK1A (recombinant, N-terminally biotinylated) (UniProt Q13627 1-763, biotin on the N-terminus (sortase labelling with a synthetic biotin-LPETGG peptide onto the N-terminal glycine left after TEV cleavage)); experiment: BLI
[2] = biological target: T1, DYRK1A (recombinant, N-terminally …); experiment: BLI; steady-state response analysis

B1: FAM53C (recombinant) (natural protein)
chain: MITLITEQLQKQTLDELKCTRFSISLPLPDHADISNCGNSFQLVSEGASWRGLPHCSCAEFQDSLNFSYHPSGLSLHLRPPSRGNSPKEQPFSQVLRPEPPDPEKLPVPPAPPSKRHCRSLSVPVDLSRWQPVWRPAPSKLWTPIKHRGSGGGGGPQVPHQSPPKRVSSLRFLQAPSASSQCAPAHRPYSPPFFSLALAQDSSRPCAASPQSGSWESDAESLSPCPPQRRFSLSPSLGPQASRFLPSARSSPASSPELPWRPRGLRNLPRSRSQPCDLDARKTGVKRRHEEDPRRLRPSLDFDKMNQKPYSGGLCLQETAREGSSISPPWFMACSPPPLSASCSPTGGSSQVLSESEEEEEGAVRWGRQALSKRTLCQRDFGDLDLNLIEEN
**Q.** With B1 as the binder, how does the koff [1] read?
**A.** Its koff is 0.04 s⁻¹.

**Q.** And the Kd [2]?
**A.** Its Kd is 3.3 µM.

— paper PMC13132546 (2026)
